Data taken from patent US20050159354A1.

Experiments:
[1] = target: neuronal receptor for agrin, on cultured mouse cortical neurons (mouse); assay: cell-based or functional assay
[2] = target: neuronal receptor for agrin, on cultured mouse cortical neurons (mouse); assay: NIH Image analysis of immunofluorescence on cortical neurons; competitor C-Ag20z8 at 1:1 molar ratio (unpublished data)

EC50 of c-fos induction in cortical neurons (in situ enzyme-linked immunoassay) [1] [nM] | rescue of glutamate-induced Fos expression in agrin-deficient neurons (5 nM, 2 d) [1] [fold] | Substance | other results
0.0133 | 2.2 | C-Ag20z0, 20-kD COOH-terminal fragment of mouse agrin, z0 splice variant (ligand) | –
0.0127 | – | C-Ag95z8, soluble 95-kD COOH terminus of mouse agrin, y4 z8 (from UniProt A2ASQ1 1144-1950) (ligand) | –
– | – | C-Ag15, 15-kD COOH-terminal fragment of mouse agrin (ligand) | IC50 of inhibition of c-fos induction by 50 pM C-Ag95z8 in cortical neurons [1]: 64.5 pM; inhibition of rescue of the agrin-deficient glutamate response by 5 nM C-Ag95z0 (10 nM C-Ag15) [1]: 54%
0.0112 | 2.2 | C-Ag20z8, 20-kD COOH-terminal fragment of mouse agrin, z8 splice variant (ligand) | –
– | – | rC-Agy4z8, soluble 95-kD COOH-terminal fragment of rat agrin, y4z8 isoform (from UniProt P25304 1153-1951) (ligand) | reduction of labeling (mean pixel intensity) [2]: 30%
0.0119 | – | C-Ag95z0, soluble 95-kD COOH terminus of mouse agrin, y4 z0 (from UniProt A2ASQ1 1144-1950) (ligand) | –
